This is an account of results in US7919104B2, “Functional epitopes of Streptococcus pneumoniae PsaA antigen and uses thereof” (priority 2005, dated 2011).

Entries after “also recorded” stand apart in the source; their conditions may differ.

The subject of one data set is Detroit 562 cells. The data set can be described thus: Competitive inhibition of adherence of rPsaA-coated fluospheres to Detroit 562 cells. The following applies: competitor 100 μg (so in the source). The class given is cell-based, human.
Data set [1] concerns HL-60, RAW 264.7 and Detroit 562 cells. The data set can be described thus: P4 activation of phagocytes and epithelial cells (cytokine release, TEM). The class given is cell-based. As for the experimental part:
Cell suspensions of HL-60 (promyelocytes) and RAW 264.7 (monocytes), and Detroit 562 cells (nasopharyngeal epithelial cells) were centrifuged at 1000 rpm-10 min and the pellet was resuspended in 1 ml PBS buffer. To this, P4 solution (1 mg/ml) was added at 10% (v/v) concentration, mixed by inverting few times and incubated at 37° C., 5% CO2 for 15 min (HL-60 and RAW) or 30 min (Detroit 562). After incubation, the cells were centrifuged again and the supernatant was analyzed for cytokines and the cell pellet was washed once in PBS, fixed in 2% glutaraldehyde and processed for transmission electron microscopic (TEM) analysis.

The subject of data set [2] is LEC-5 and NEO fibroblast cell lines. The data set can be described thus: Growth of fibroblasts with P4 treated cell supernatant. The class given is cell-based. The following applies: supernatant of P4 treated cells with higher FGFbasic, different concentrations. As to the method: 2 fibroblast cell lines, LEC-5 and NEO, were used. These cells were grown in a 96 well titer plates until they become confluent (˜6 days). To this, the P4 treated cell supernatant that had higher concentration of FGFbasic was added at different concentrations and the growth was monitored fluormetrically with the help of a fluorometric metabolic indicator.

The target in data set [3] is T1, P4 beads (Streptococcus pneumoniae serotype 4, UniProt P0A4G2).
T1 sequence (P0A4G2 251-278 D258K/D259R): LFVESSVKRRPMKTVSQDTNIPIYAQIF
Put plainly: Mouse immunization: serum % IA of P4 beads (anti P4 activity). The class given is in vivo. As for the experimental part: (§1) Serum inhibition of adherence assays were performed as previously described for the inhibition of pneumococcal adherence (Romero-Steiner). Two buffer solutions were found suitable for this type of assay: solution 1 (EMEM medium—Hanks buffered saline with Ca++ and Mg++ supplemented with 0.2% BSA) as previously reported (Romero-Steiner) or solution 2 (PBS 10 mM, pH7.2-7.4 supplemented with 1% BSA and 0.5% BSA for washes) as described below. Use of one buffer solution in preference to the other depended on availability of BSA (Sigma cat #A2153). Alternative preparations of BSA were evaluated but were not found suitable for this assay due to toxicity to the cell monolayer. Briefly, confluent monolayers of Detroit 562 cells were washed once with 130 μl/well of PBS buffer+0.5% BSA. A 45 μl volume of PBS buffer+1% BSA was added to each well and the plate was incubated while preparing serum dilutions in a replicate plate (U-bottom Costar). Serum dilutions in the replica plate could be performed in a 2-fold or 3-fold dilution scheme. For the 2-fold dilution scheme, a 10 μl volume of test or control serum was added to the first row of wells (B2-B11) already containing 70 μl of PBS+1% BSA. A 40 μl volume of PBS+1% BSA was added to the remainder of the wells including the outer perimeter. The sera from row B was serially diluted into rows C-F with a multichannel pipetor set at 40 μl (2-fold). The last 401 was discarded into the waste. Serum was not added to the adherence control wells (row G or column 11). A 20 μl volume of the optimal fluosphere dilution (usually 1:100 or 1:150, containing ˜3,100 fluospheres) was added to each well, including serum-free controls. The fluosphere suspension was sonicated for 3 minutes prior to addition to the center of the wells to generate a single fluosphere suspension. The microtiter plate was mixed by tapping the sides gently and incubated for 15 minutes at 37° C., 5% CO2. At the end of the incubation period, 55 μl/well was replica plated into the microtiter plate containing the washed monolayers containing 45 μl of PBS+1% BSA. The final well volume was always adjusted to 100-μl volume regardless of the serum dilution scheme used (2-fold or 3-fold) to control the reproducibility of fluosphere adherence The plate was mixed by tapping the sides gently and incubated for 2 hours at 37° C., 5% CO2. Following incubation, plates were washed 5 times with 130 μl/well of PBS+0.5% BSA. The plates were allowed to dry before reading in a fluorometer (BioTek, FLX 800) at 485 nm for excitation and emission at 520 nm. The percent inhibition of adherence (IA) was calculated as compared to adherence controls. The following formula was used: % IA=100-(test well FU×100)/controls mean FU.

The target in data set [4] is T2, P4 beads (Streptococcus pneumoniae serotype 4, UniProt P0A4G2, D258K/D259R).
T2 sequence (P0A4G2 251-278 D258K/D259R): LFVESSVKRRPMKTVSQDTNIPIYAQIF
The data set is described as above. The class given is in vivo. The note with it: sera 1:32 dilution. As for the experimental part:
as §1

The target of the next data set is T3, PsaA beads (Streptococcus pneumoniae serotype 4, UniProt P0A4G2).
T3 construct: Both, rPsaA (MW 34,079 daltons) and the synthetic peptides were non-lipidated; purchased Aventis-Pasteur, Toronto, Ontario, Canada (donated)
T3 sequence (P0A4G2 20-309): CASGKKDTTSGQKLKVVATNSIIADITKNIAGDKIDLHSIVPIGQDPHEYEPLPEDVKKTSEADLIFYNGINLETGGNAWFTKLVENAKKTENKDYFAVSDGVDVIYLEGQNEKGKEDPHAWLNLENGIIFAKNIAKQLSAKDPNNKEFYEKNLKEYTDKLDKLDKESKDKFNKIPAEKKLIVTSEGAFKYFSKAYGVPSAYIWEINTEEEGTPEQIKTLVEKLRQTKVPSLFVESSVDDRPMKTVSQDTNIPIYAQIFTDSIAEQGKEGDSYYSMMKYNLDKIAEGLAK
The data set can be described thus: Mouse immunization: serum % IA of PsaA beads (anti PsaA activity). The class given is in vivo. As for the experimental part:
as §1

[5] abbreviates: P4 solution (1 mg/ml) at 10% (v/v), 15 or 30 min.
[6] abbreviates: mice serum dilution factor 8, 7th day.
Where [7] appears, read: mice serum dilution factor 8, 11th day.
The mark [8] stands for this setting: mice serum dilution factor 16, 7th day.
Setting [9] is: mice serum dilution factor 16, 11th day.
Where [10] appears, read: mice serum dilution factor 32, 7th day.
[11] abbreviates: mice serum dilution factor 32, 11th day.
Where [12] appears, read: mice serum dilution factor 64, 7th day.
The mark [13] stands for this setting: mice serum dilution factor 64, 11th day.
Setting [14] is: mice serum dilution factor 128, 7th day.
The mark [15] stands for this setting: mice serum dilution factor 128, 11th day.
[16] abbreviates: mice serum dilution factor 256, 7th day.
Setting [17] is: mice serum dilution factor 256, 11th day.
[18] abbreviates: mice serum dilution factor 512, 7th day.
The mark [19] stands for this setting: mice serum dilution factor 512, 11th day.
The mark [20] stands for this setting: mice serum dilution factor 1024, 7th day.
The mark [21] stands for this setting: mice serum dilution factor 1024, 11th day.
Setting [22] is: mice serum dilution factor 2048, 7th day.
Where [23] appears, read: mice serum dilution factor 2048, 11th day.
The mark [24] stands for this setting: mice serum dilution factor 4096, 7th day.
Setting [25] is: mice serum dilution factor 4096, 11th day.

In the case of “LFVESSVKRRPMKTVSQDTNIPIYAQIF [P4, non-branched synthetic peptide, PsaA amino acid residues 251 to 278 with DD changed to KR]”, the “reduction in FU of PsaA-coated beads” value in the data set with Detroit 562 cells worked out at 68%. Also, in data set [1] (Detroit 562 NP cells exposed to P4 solution), the “bacterial adherence to P4 treated NP cells” value is on record as “enhancement in bacterial adherence”. The EGF release/production result in data set [1] (setting [5]) was “brings down EGF production; also recorded: down regulated”. Moreover, the FGFbasic release/production entry in data set [1] (setting [5]) is recorded as “up regulated”. For the same molecule, the IL8 release/production entry in data set [1] (setting [5]) is given as “down regulated”. The “cell morphology by TEM and light photomicrographs” value in data set [1] (setting [5]) is “phagocytic activation”. In data set [2], the “growth of fibroblasts (fluorometric metabolic indicator)” value is given as “enhancement in the growth”. Moreover, the “Anti P4 activity (% IA of P4 beads)” value was determined as 81% with P4 beads [3] (setting [6]); 95% with P4 beads [3] (setting [7]); 40% in the data set with P4 beads [3] (setting [8]); 44% in the data set with P4 beads [3] (setting [9]); 31% with P4 beads [3] (setting [10]); 45% with P4 beads [3] (setting [11]). Besides, the “Anti P4 activity (% IA of P4 beads)” value with P4 beads [3] (setting [12]) worked out at 0%; with P4 beads [3] (setting [13]) it was 4%; in the data set with P4 beads [3] (setting [14]) it was 0%; with P4 beads [3] (setting [15]), 0%; with P4 beads [3] (setting [16]), 0%; with P4 beads [3] (setting [17]), 0%. The “Anti P4 activity (% IA of P4 beads)” value with P4 beads [3] (setting [18]), with P4 beads [3] (setting [19]), in the data set with P4 beads [3] (setting [20]), in the data set with P4 beads [3] (setting [21]), with P4 beads [3] (setting [22]) and with P4 beads [3] (setting [23]) was 0% in each case. The “Anti P4 activity (% IA of P4 beads)” value with P4 beads [3] (setting [24]) and with P4 beads [3] (setting [25]) was 0% each time. In addition, in the data set with P4 beads [4], the “inhibition of adherence detected in sera from immunized mice” value is recorded as “Up to 45%”.

B1: rPsaA: purified recombinant pneumococcal surface adhesin A, non-lipidated, donated by Aventis-Pasteur (protein)
chain: CASGKKDTTSGQKLKVVATNSIIADITKNIAGDKIDLHSIVPIGQDPHEYEPLPEDVKKTSEADLIFYNGINLETGGNAWFTKLVENAKKTENKDYFAVSDGVDVIYLEGQNEKGKEDPHAWLNLENGIIFAKNIAKQLSAKDPNNKEFYEKNLKEYTDKLDKLDKESKDKFNKIPAEKKLIVTSEGAFKYFSKAYGVPSAYIWEINTEEEGTPEQIKTLVEKLRQTKVPSLFVESSVDDRPMKTVSQDTNIPIYAQIFTDSIAEQGKEGDSYYSMMKYNLDKIAEGLAK
Take B1: the “Anti PsaA activity (% IA of PsaA beads)” value with PsaA beads (setting [6]) turned out to be 84%; with PsaA beads (setting [7]), 79%; in the data set with PsaA beads (setting [8]) it was 47%; with PsaA beads (setting [9]) it was 37%; in the data set with PsaA beads (setting [10]), 42%; with PsaA beads (setting [11]) it was 34%. In addition, the “Anti PsaA activity (% IA of PsaA beads)” value in the data set with PsaA beads (setting [12]) was found to be 0%; in the data set with PsaA beads (setting [13]) it was 11%; in the data set with PsaA beads (setting [14]), 0%; with PsaA beads (setting [15]), 1%; with PsaA beads (setting [16]), 0%; with PsaA beads (setting [17]), 0%. The “Anti PsaA activity (% IA of PsaA beads)” value came to 0% with PsaA beads (setting [18]); 0% with PsaA beads (setting [19]); 0% in the data set with PsaA beads (setting [20]); 0% with PsaA beads (setting [21]); 0% with PsaA beads (setting [22]); 4% with PsaA beads (setting [23]). Moreover, the “Anti PsaA activity (% IA of PsaA beads)” value with PsaA beads (setting [24]) came out at 0%; with PsaA beads (setting [25]) it was 18%.
